Test results from US20170253633A1 (IMMATICS BIOTECHNOLOGIES, published 2017).

Molecular target: T1, HLA-A*02:01 (human)
T1 construct: MHC monomer first loaded with a UV-sensitive peptide, which is cleaved by UV and exchanged with the test peptide; captured on streptavidin plates; also called peptide-receptive MHC molecules
Experiment: UV-ligand exchange + anti-b2m ELISA; +++ = peptide exchange yield >50
Description: Candidate peptides for T cell based therapies according to the present invention were further tested for their MHC binding capacity (affinity). The individual peptide-MHC complexes were produced by UV-ligand exchange, where a UV-sensitive peptide is cleaved upon UV-irradiation, and exchanged with the peptide of interest as analyzed. Only peptide candidates that can effectively bind and stabilize the peptide-receptive MHC molecules prevent dissociation of the MHC complexes. To determine the yield of the exchange reaction, an ELISA was performed based on the detection of the light chain (β2m) of stabilized MHC complexes. The assay was performed as generally described in Rodenko et al. (Rodenko et al., 2006).
96 well MAXISorp plates (NUNC) were coated over night with 2 ug/ml streptavidin in PBS at room temperature, washed 4× and blocked forth at 37° C. in 2% BSA containing blocking buffer. Refolded HLA-A*02:01/MLA-001 monomers served as standards, covering the range of 15-500 ng/ml. Peptide-MHC monomers of the UV-exchange reaction were diluted 100 fold in blocking buffer. Samples were incubated for 1 h at 37° C., washed four times, incubated with 2 ug/ml HRP conjugated anti-β2m for 1 h at 37° C., washed again and detected with TMB solution that is stopped with […]. Absorption was measured at 450 nm. Candidate peptides that show a high exchange yield (preferably higher than 50%, most preferred higher than 75%) are generally preferred for a generation and production of antibodies or fragments thereof, and/or T cell receptors or fragments thereof, as they show sufficient avidity to the MHC molecules and prevent dissociation of the MHC complexes.

B1: ALWDEFNQL (peptide)
peptide: ALWDEFNQL
notes: gene: TBX1
Question: How did the peptide exchange yield turn out when B1 was run?
Answer: 50 to 75%

B2: ILVQVIPVV (peptide)
peptide: ILVQVIPVV
notes: gene: IRF6
Question: How did the peptide exchange yield turn out when B2 was run?
Answer: 50 to 75%

B3: YLEPKLTQV (peptide)
peptide: YLEPKLTQV
notes: gene: PSME4
Question: For B3, which peptide exchange yield is on record?
Answer: 50 to 75%

B4: TLVTGLASV (peptide)
peptide: TLVTGLASV
notes: gene: MFN1
Question: With B4 as the binder, how does the peptide exchange yield read?
Answer: 50 to 75%

B5: VLMDDTDPLV (peptide)
peptide: VLMDDTDPLV
notes: gene: PSMC1
Question: B5 was tested. Which peptide exchange yield did it give?
Answer: 50 to 75%

B6: SLDEKQNLV (peptide)
peptide: SLDEKQNLV
notes: gene: METTL8
Question: B6 was tested. Which peptide exchange yield did it give?
Answer: 50 to 75%

B7: SLIGGTNFV (peptide)
peptide: SLIGGTNFV
notes: gene: AP1B1
Question: How did the peptide exchange yield turn out when B7 was run?
Answer: 50 to 75%

B8: ALSSPPPTV (peptide)
peptide: ALSSPPPTV
notes: gene: ZFYVE9
Question: For B8, which peptide exchange yield is on record?
Answer: 50 to 75%

B9: YQAPDIDVQL (peptide)
peptide: YQAPDIDVQL
notes: gene: GLTSCR2
Question: Which peptide exchange yield does the source give for B9 here?
Answer: 50 to 75%

B10: RLLDFPTLLV (peptide)
peptide: RLLDFPTLLV
notes: gene: MAP10
Question: With B10 as the binder, how does the peptide exchange yield read?
Answer: 50 to 75%

B11: VLANRVAVV (peptide)
peptide: VLANRVAVV
notes: gene: DHRS2
Question: With B11 as the binder, how does the peptide exchange yield read?
Answer: 50 to 75%

B12: FLEEKEQAAL (peptide)
peptide: FLEEKEQAAL
notes: genes: TRIM16, CDRT1, TRIM16L
Question: For B12, which peptide exchange yield is on record?
Answer: 50 to 75%

B13: IIIPEIQKV (peptide)
peptide: IIIPEIQKV
notes: gene: CSE1L
Question: With B13 as the binder, how does the peptide exchange yield read?
Answer: 50 to 75%

B14: SLDSSGFSL (peptide)
peptide: SLDSSGFSL
notes: gene: PARP4
Question: B14 was tested. Which peptide exchange yield did it give?
Answer: 50 to 75%

B15: ILSAILVHL (peptide)
peptide: ILSAILVHL
notes: gene: MROH2A
Question: How did the peptide exchange yield turn out when B15 was run?
Answer: 50 to 75%

B16: YMLDIFHEVL (peptide)
peptide: YMLDIFHEVL
notes: gene: HAS3
Question: With B16 as the binder, how does the peptide exchange yield read?
Answer: 50 to 75%

B17: YLTNEGIQYL (peptide)
peptide: YLTNEGIQYL
notes: genes: RPS10-NUDT3, RPS10
Question: For B17, which peptide exchange yield is on record?
Answer: 50 to 75%

B18: LLYPTEITV (peptide)
peptide: LLYPTEITV
notes: gene: ITGA3
Question: For B18, which peptide exchange yield is on record?
Answer: 50 to 75%

B19: QLQGYLRSV (peptide)
peptide: QLQGYLRSV
notes: gene: RPL6
Question: B19 was tested. Which peptide exchange yield did it give?
Answer: 50 to 75%

B20: GLLSQGSPL (peptide)
peptide: GLLSQGSPL
notes: gene: GCLC
Question: With B20 as the binder, how does the peptide exchange yield read?
Answer: 50 to 75%

B21: QIWDKILSV (peptide)
peptide: QIWDKILSV
notes: gene: DHRS2
Question: Which peptide exchange yield does the source give for B21 here?
Answer: 50 to 75%

B22: ILLDTPLFL (peptide)
peptide: ILLDTPLFL
notes: gene: SERHL2
Question: B22 was tested. Which peptide exchange yield did it give?
Answer: 50 to 75%

B23: KLNATNIEL (peptide)
peptide: KLNATNIEL
notes: gene: PSMA5
Question: With B23 as the binder, how does the peptide exchange yield read?
Answer: 50 to 75%

B24: SLWEENQAL (peptide)
peptide: SLWEENQAL
notes: gene: LAMA5
Question: With B24 as the binder, how does the peptide exchange yield read?
Answer: 50 to 75%

B25: SLLDFERSL (peptide)
peptide: SLLDFERSL
notes: gene: HPS3
Question: Which peptide exchange yield does the source give for B25 here?
Answer: 50 to 75%

B26: RLSQLEGVNV (peptide)
peptide: RLSQLEGVNV
notes: gene as printed: VP535
Question: Which peptide exchange yield does the source give for B26 here?
Answer: 50 to 75%

B27: KLPEPPPLA (peptide)
peptide: KLPEPPPLA
notes: gene: ERV3-1
Question: For B27, which peptide exchange yield is on record?
Answer: 50 to 75%

B28: FLGENISNFL (peptide)
peptide: FLGENISNFL
notes: gene: APOL1
Question: B28 was tested. Which peptide exchange yield did it give?
Answer: 50 to 75%

B29: RLIDDMVAQA (peptide)
peptide: RLIDDMVAQA
notes: gene: IDH1
Question: How did the peptide exchange yield turn out when B29 was run?
Answer: 50 to 75%

B30: TLTSIIVAV (peptide)
peptide: TLTSIIVAV
notes: gene: MROH2A
Question: B30 was tested. Which peptide exchange yield did it give?
Answer: 50 to 75%

B31: FLLPLIIVL (peptide)
peptide: FLLPLIIVL
notes: gene: MR1
Question: Which peptide exchange yield does the source give for B31 here?
Answer: 50 to 75%

B32: GLLKAYSIRTA (peptide)
peptide: GLLKAYSIRTA
notes: gene: KRT7
Question: Which peptide exchange yield does the source give for B32 here?
Answer: 50 to 75%

B33: VIADRVVTV (peptide)
peptide: VIADRVVTV
notes: gene: VWA5B1
Question: Which peptide exchange yield does the source give for B33 here?
Answer: 50 to 75%

B34: ALLDEQQVNV (peptide)
peptide: ALLDEQQVNV
notes: gene: ID1
Question: How did the peptide exchange yield turn out when B34 was run?
Answer: 50 to 75%

B35: GLDSSVNVQGSVL (peptide)
peptide: GLDSSVNVQGSVL
notes: gene: WTAP
Question: B35 was tested. Which peptide exchange yield did it give?
Answer: 50 to 75%

B36: YLAPENGYLMEA (peptide)
peptide: YLAPENGYLMEA
notes: gene: SNRNP70
Question: Which peptide exchange yield does the source give for B36 here?
Answer: 50 to 75%

B37: QMLELITRL (peptide)
peptide: QMLELITRL
notes: gene: DICER1
Question: For B37, which peptide exchange yield is on record?
Answer: 50 to 75%

B38: VLMDDTDPL (peptide)
peptide: VLMDDTDPL
notes: gene: PSMC1
Question: With B38 as the binder, how does the peptide exchange yield read?
Answer: 50 to 75%

B39: YLAGEAPTL (peptide)
peptide: YLAGEAPTL
notes: gene: VARS
Question: Which peptide exchange yield does the source give for B39 here?
Answer: 50 to 75%

B40: SLATLEGIQL (peptide)
peptide: SLATLEGIQL
notes: gene: ZNF236
Question: B40 was tested. Which peptide exchange yield did it give?
Answer: 50 to 75%

B41: QIDGTLSTI (peptide)
peptide: QIDGTLSTI
notes: genes: FBXO34, CHMP4C, CHMP4B, CHMP4BP1
Question: How did the peptide exchange yield turn out when B41 was run?
Answer: 50 to 75%

B42: ALYPGQLVQL (peptide)
peptide: ALYPGQLVQL
notes: gene: ARHGAP9
Question: B42 was tested. Which peptide exchange yield did it give?
Answer: 50 to 75%

B43: AMASHLTST (peptide)
peptide: AMASHLTST
notes: gene: RBM4
Question: For B43, which peptide exchange yield is on record?
Answer: 50 to 75%

B44: GLAQDPKSLQL (peptide)
peptide: GLAQDPKSLQL
notes: gene: TTC28
Question: With B44 as the binder, how does the peptide exchange yield read?
Answer: 50 to 75%

B45: GQLDFSEFL (peptide)
peptide: GQLDFSEFL
notes: gene: S100A11
Question: With B45 as the binder, how does the peptide exchange yield read?
Answer: 50 to 75%

B46: IITKDLFQV (peptide)
peptide: IITKDLFQV
notes: gene: DYNC1H1
Question: For B46, which peptide exchange yield is on record?
Answer: 50 to 75%

B47: QLAWFDTDL (peptide)
peptide: QLAWFDTDL
notes: gene: CTNNB1
Question: How did the peptide exchange yield turn out when B47 was run?
Answer: 50 to 75%

B48: ILLRDLPTL (peptide)
peptide: ILLRDLPTL
notes: gene: FAM174B
Question: B48 was tested. Which peptide exchange yield did it give?
Answer: 50 to 75%

B49: VLFNIDGQGNHV (peptide)
peptide: VLFNIDGQGNHV
notes: gene: GATA3
Question: Which peptide exchange yield does the source give for B49 here?
Answer: 50 to 75%

B50: GLAGPVRGV (peptide)
peptide: GLAGPVRGV
notes: genes: SNURF, SNRPB, SNRPN
Question: For B50, which peptide exchange yield is on record?
Answer: 50 to 75%

B51: FLIDASQRV (peptide)
peptide: FLIDASQRV
notes: gene: COL6A5
Question: How did the peptide exchange yield turn out when B51 was run?
Answer: 50 to 75%

B52: TLFPSKIGV (peptide)
peptide: TLFPSKIGV
notes: genes: MOB1A, MOB1B
Question: Which peptide exchange yield does the source give for B52 here?
Answer: 50 to 75%

B53: ALNDEINFL (peptide)
peptide: ALNDEINFL
notes: gene: KRT7
Question: For B53, which peptide exchange yield is on record?
Answer: 50 to 75%

B54: LLAGLLVGV (peptide)
peptide: LLAGLLVGV
notes: gene: C1orf159
Question: With B54 as the binder, how does the peptide exchange yield read?
Answer: 50 to 75%

B55: LLDVTPKAV (peptide)
peptide: LLDVTPKAV
notes: gene: TJP2
Question: How did the peptide exchange yield turn out when B55 was run?
Answer: 50 to 75%

B56: ILGPQGNTI (peptide)
peptide: ILGPQGNTI
notes: gene: KHDRBS1
Question: With B56 as the binder, how does the peptide exchange yield read?
Answer: 50 to 75%

B57: SIVDFLITA (peptide)
peptide: SIVDFLITA
notes: gene: PPP1R13L
Question: Which peptide exchange yield does the source give for B57 here?
Answer: 50 to 75%

B58: ILDISRSEV (peptide)
peptide: ILDISRSEV
notes: gene: GPR107
Question: B58 was tested. Which peptide exchange yield did it give?
Answer: 50 to 75%

B59: STTNGGILTV (peptide)
peptide: STTNGGILTV
notes: gene: FYTTD1
Question: Which peptide exchange yield does the source give for B59 here?
Answer: 50 to 75%

B60: YLDPSLNSL (peptide)
peptide: YLDPSLNSL
notes: gene: CXorf57
Question: For B60, which peptide exchange yield is on record?
Answer: 50 to 75%

B61: SLATTLTKI (peptide)
peptide: SLATTLTKI
notes: gene: COPB1
Question: Which peptide exchange yield does the source give for B61 here?
Answer: 50 to 75%

B62: TLIEDDALNGA (peptide)
peptide: TLIEDDALNGA
notes: gene: HPGD
Question: With B62 as the binder, how does the peptide exchange yield read?
Answer: 50 to 75%

B63: YLDPNQRDL (peptide)
peptide: YLDPNQRDL
notes: gene: ZNF573
Question: Which peptide exchange yield does the source give for B63 here?
Answer: 50 to 75%

B64: GLSEPIFQL (peptide)
peptide: GLSEPIFQL
notes: gene: MFN1
Question: How did the peptide exchange yield turn out when B64 was run?
Answer: 50 to 75%

B65: IVAPGTFEV (peptide)
peptide: IVAPGTFEV
notes: gene: ILF2
Question: B65 was tested. Which peptide exchange yield did it give?
Answer: 50 to 75%

B66: VLFGEITRL (peptide)
peptide: VLFGEITRL
notes: gene: NDUFS2
Question: Which peptide exchange yield does the source give for B66 here?
Answer: 50 to 75%

B67: TMIVSLAAV (peptide)
peptide: TMIVSLAAV
notes: gene: ARL6IP1
Question: With B67 as the binder, how does the peptide exchange yield read?
Answer: 50 to 75%
